The text below walks through data of patent publication US20200055920A1 (published 2020).

Like-named read-outs stand apart in the source and are kept apart here.

What all share (experiment): Biacore SPR; receptor-Fc captured by anti-Fc antibody, ligand injected
For orientation: SPR reads the build-up and loss of mass on a sensor chip optically.

Test [1] addresses T1, BMP6 (UniProt P22004 382-513, limits assumed).
T1 sequence (looked up): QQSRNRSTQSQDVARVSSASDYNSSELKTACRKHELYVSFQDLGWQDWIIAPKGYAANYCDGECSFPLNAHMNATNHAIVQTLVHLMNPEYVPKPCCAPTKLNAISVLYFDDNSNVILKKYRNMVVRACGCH

For test [2], the target named is T2, BMP10 (UniProt O95393 317-424).
T2 sequence (looked up): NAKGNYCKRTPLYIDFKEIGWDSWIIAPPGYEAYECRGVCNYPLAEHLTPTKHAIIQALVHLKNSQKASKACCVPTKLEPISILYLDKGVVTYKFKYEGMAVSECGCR

The next test has as its target T3, Activin B (UniProt P09529 293-407).
T3 construct: also called βBβB
T3 sequence (looked up): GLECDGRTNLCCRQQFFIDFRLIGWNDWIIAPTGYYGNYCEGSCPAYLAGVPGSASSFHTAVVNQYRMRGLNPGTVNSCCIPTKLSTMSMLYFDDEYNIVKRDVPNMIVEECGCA
How it is done:
(§1) Ligands were injected and allowed to flow over the captured receptor protein.

Another test addresses T4, GDF3 (UniProt Q9NR23 251-364).
T4 construct: also called VGR2
T4 sequence (looked up): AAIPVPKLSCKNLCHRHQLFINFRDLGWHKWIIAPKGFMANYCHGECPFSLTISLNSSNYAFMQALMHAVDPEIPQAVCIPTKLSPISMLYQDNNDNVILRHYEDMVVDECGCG
How it is done: as §1

In another test the target is T5, GDF8 (UniProt O14793 267-375).
T5 construct: also called myostatin; growth and differentiation factor-8
T5 sequence (looked up): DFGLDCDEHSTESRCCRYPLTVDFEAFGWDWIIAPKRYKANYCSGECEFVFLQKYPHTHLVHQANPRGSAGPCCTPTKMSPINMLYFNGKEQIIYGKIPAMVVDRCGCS
How it is done: as §1

In a further test the target is T6, GDF11 (UniProt O95390 299-407).
T6 construct: also called BMP11
T6 sequence (looked up): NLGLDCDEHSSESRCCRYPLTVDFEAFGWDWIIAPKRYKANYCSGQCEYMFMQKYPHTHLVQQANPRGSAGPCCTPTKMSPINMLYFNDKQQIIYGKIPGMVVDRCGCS
On the procedure: as §1

The next test deals with T7, Activin A (UniProt P08476 311-426).
T7 construct: also called βAβA
T7 sequence (looked up): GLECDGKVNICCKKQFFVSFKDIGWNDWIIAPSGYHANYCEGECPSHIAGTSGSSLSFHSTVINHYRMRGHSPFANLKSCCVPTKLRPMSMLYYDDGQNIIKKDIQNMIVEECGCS
How it is done: as §1

For another test, the target named is T8, BMP9 (UniProt Q9UK05 320-429).
T8 construct: also called GDF2
T8 sequence (looked up): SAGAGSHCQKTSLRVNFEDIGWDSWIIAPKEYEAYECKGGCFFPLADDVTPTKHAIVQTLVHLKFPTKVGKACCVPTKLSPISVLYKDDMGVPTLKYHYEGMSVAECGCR
How it is done:
as §1

The target of the next test is T9, BMP15 (UniProt O95972 268-392).
T9 construct: also called GDF9b
T9 sequence (looked up): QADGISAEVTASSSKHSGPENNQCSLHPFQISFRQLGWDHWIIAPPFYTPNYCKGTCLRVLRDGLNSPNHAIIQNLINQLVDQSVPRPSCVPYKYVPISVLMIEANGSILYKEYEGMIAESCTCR
How it is done: A Biacore™-based binding assay was used to compare ligand binding selectivity of the single-arm BMPRII-Fc heterodimeric complex described above with that of an BMPRII-Fc homodimeric complex. The single-arm BMPRII-Fc and homodimeric BMPRII-Fc were independently captured onto the system using an anti-Fc antibody. Ligands were injected and allowed to flow over the captured receptor protein.

For another test, the target named is T10, BMP7 (UniProt P18075 293-431).
T10 construct: also called osteogenic protein-1; OP-1
T10 sequence (looked up): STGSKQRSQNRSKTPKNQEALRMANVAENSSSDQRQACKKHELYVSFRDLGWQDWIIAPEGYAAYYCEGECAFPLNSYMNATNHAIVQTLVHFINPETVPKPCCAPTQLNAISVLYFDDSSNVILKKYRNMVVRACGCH

The target of another test is BMP2 (UniProt P12643 283-396).
Sequence of BMP2 (P12643 283-396 limits assumed): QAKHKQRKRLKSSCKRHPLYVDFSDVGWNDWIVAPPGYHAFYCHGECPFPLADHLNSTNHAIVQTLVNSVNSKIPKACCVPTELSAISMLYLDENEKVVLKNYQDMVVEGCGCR
A further test addresses T11, GDF6 (UniProt Q6KF10 336-455, limits assumed).
T11 construct: also called BMP13
T11 sequence (looked up): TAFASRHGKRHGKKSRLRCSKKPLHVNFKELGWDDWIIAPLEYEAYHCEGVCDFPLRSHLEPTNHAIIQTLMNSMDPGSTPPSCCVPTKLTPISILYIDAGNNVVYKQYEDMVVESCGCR
On the procedure: as §1

A further test has as its target T12, BMP5 (UniProt P22003 317-454, limits assumed).
T12 sequence (looked up): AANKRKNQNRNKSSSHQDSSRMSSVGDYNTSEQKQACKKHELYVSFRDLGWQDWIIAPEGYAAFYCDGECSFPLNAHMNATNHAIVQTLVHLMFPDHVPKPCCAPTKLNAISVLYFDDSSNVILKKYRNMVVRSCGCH

In test [3] the target is T1, BMP6. On the procedure:
as §1
This is another data set of the same source.

Test [4] deals with T2, BMP10. How it is done:
as §1
This is another data set of the same source.

As usually defined, the Kd is a measure of binding affinity in units of concentration. As a reminder, the koff is the first-order rate constant of dissociation. Low values mean a long-lived complex, high ones a short-lived complex. For orientation: kon means a measure of how fast the partners come together. For ActRIIB-Fc homodimer (Fc fusion), the dissociation constant (Kd) with BMP6 [1] was determined as 0.21 nM; with BMP10 [2], 0.011 nM; with Activin B, 0.02 nM; with GDF3, 1.5 nM; with GDF8, 0.28 nM; with GDF11, 0.002 nM. The dissociation constant Kd was determined as 0.019 nM with Activin A and 0.078 nM with BMP9. Also, the off-rate constant (koff) is 0.0068 s⁻¹ with BMP6 [1]; 0.00026 s⁻¹ with BMP10 [2]; 0.0001 s⁻¹ with Activin B; 0.0022 s⁻¹ with GDF3; 0.00023 s⁻¹ with GDF8; 0.00011 s⁻¹ with GDF11. Also, the dissociation rate constant (koff) with Activin A amounted to 0.00023 s⁻¹; with BMP9 it was 0.0011 s⁻¹. Further, the kon with BMP6 [1] was found to be 3.2e+07 M⁻¹ s⁻¹; with BMP10 [2], 2.3e+07 M⁻¹ s⁻¹; with Activin B, 5.1e+06 M⁻¹ s⁻¹; with GDF3, 1.4e+06 M⁻¹ s⁻¹; with GDF8, 830000 M⁻¹ s⁻¹; in the test with GDF11, 5e+07 M⁻¹ s⁻¹. Also, the figures for the on-rate constant (kon) with Activin A and with BMP9 were 1.2e+07 M⁻¹ s⁻¹ and 1.4e+07 M⁻¹ s⁻¹, respectively.
In the case of BMPRII-Fc homodimer (Fc fusion), the dissociation constant (Kd) with BMP15 was 0.28 nM; with BMP6 [1] it was over 8.9 nM; with BMP7, over 38 nM; in the test with BMP10 [2], 0.098 nM; in the test with BMP2, over 2000 nM; with Activin B it was 3.8 nM. Besides, the dissociation constant (Kd) in the test with GDF6 is over 88 nM; in the test with BMP9, 2.1 nM. Further, the koff with BMP15 stood at 0.0028 s⁻¹; with BMP10 [2], 0.0025 s⁻¹; in the test with Activin B it was 0.075 s⁻¹; in the test with BMP9 it was 0.026 s⁻¹. For the same molecule, the association rate constant (kon) turned out to be 9.9e+06 M⁻¹ s⁻¹ in the test with BMP15, 2.6e+07 M⁻¹ s⁻¹ in the test with BMP10 [2], 2e+07 M⁻¹ s⁻¹ in the test with Activin B and 1.2e+07 M⁻¹ s⁻¹ in the test with BMP9.
ALK1-Fc homodimer (Fc fusion): in the test with BMP10 [2], the Kd was found to be 0.006 nM, the koff is 0.00011 s⁻¹ and the association rate constant (kon) came out at 1.7e+07 M⁻¹ s⁻¹. In addition, in the test with BMP9, the Kd was 0.016 nM, the off-rate (koff) was determined as 0.00013 s⁻¹ and the on-rate (kon) came out at 7.9e+06 M⁻¹ s⁻¹.
For ActRIIA-Fc homodimer (Fc fusion), the equilibrium dissociation constant (Kd) with BMP10 [2] stood at 0.086 nM; in the test with BMP5 it was 1.1 nM; with Activin B it was 0.025 nM; with GDF8, 0.099 nM; with GDF11 it was 0.028 nM; in the test with Activin A, 0.045 nM. For the same molecule, the dissociation rate constant (koff) with BMP10 [2] turned out to be 0.0025 s⁻¹; with BMP5 it was 0.0045 s⁻¹; with Activin B, 0.0002 s⁻¹; in the test with GDF8, 0.0014 s⁻¹; in the test with GDF11 it was 0.00072 s⁻¹; with Activin A, 0.00062 s⁻¹. Moreover, the kon amounted to 2.9e+07 M⁻¹ s⁻¹ with BMP10 [2]; 4e+06 M⁻¹ s⁻¹ with BMP5; 7.9e+06 M⁻¹ s⁻¹ in the test with Activin B; 1.4e+07 M⁻¹ s⁻¹ with GDF8; 2.6e+07 M⁻¹ s⁻¹ in the test with GDF11; 1.4e+07 M⁻¹ s⁻¹ with Activin A.

B1: single-arm ActRIIB-Fc heterodimeric complex (Fc fusion)
chain 1: GRGEAETRECIYYNANWELERTNQSGLERCEGEQDKRLHCYASWRNSSGTIELVKKGCWLDDFNCYDRQECVATEENPQVYFCCCEGNFCNERFTHLPEAGGPEVTYEPPPTAPTGGGTHTCPPCPAPELLGGPSVFLFPPKPKDTLMISRTPEVTCVVVDVSHEDPEVKFNWYVDGVEVHNAKTKPREEQYNSTYRVVSVLTVLHQDWLNGKEYKCKVSNKALPAPIEKTISKAKGQPREPQVYTLPPSRKEMTKNQVSLTCLVKGFYPSDIAVEWESNGQPENNYKTTPPVLKSDGSFFLYSKLTVDKSRWQQGNVFSCSVMHEALHNHYTQKSLSLSPGK
chain 2: SNTKVDKRVTGGGTHTCPPCPAPELLGGPSVFLFPPKPKDTLMISRTPEVTCVVVDVSHEDPEVKFNWYVDGVEVHNAKTKPREEQYNSTYRVVSVLTVLHQDWLNGKEYKCKVSNKALPAPIEKTISKAKGQPREPQVYTLPPSREEMTKNQVSLTCLVKGFYPSDIAVEWESNGQPENNYDTTPPVLDSDGSFFLYSDLTVDKSRWQQGNVFSCSVMHEALHNHYTQKSLSLSPGK
notes: The C-terminal lysine may optionally be removed; also called ActRIIB-Fc:Fc heterodimer; single-arm ActRIIB-Fc:Fc
Take B1: the dissociation constant (Kd) with BMP6 [3] stood at 0.69 nM; with Activin B, 0.12 nM; in the test with GDF3 it was 12 nM; with GDF8, 0.29 nM; with GDF11, 0.02 nM; with Activin A it was 0.099 nM. Binding in the test with BMP10 [4] was put at a Kd of 0.12 nM. The off-rate (koff) with BMP6 [3] came out at 0.029 s⁻¹; in the test with Activin B, 0.00042 s⁻¹; with GDF3, 0.013 s⁻¹; with GDF8, 0.001 s⁻¹; with GDF11, 0.00072 s⁻¹; with Activin A, 0.003 s⁻¹. The molecule further came in with a koff in the test with BMP10 [4] of 0.0097 s⁻¹. Also, the on-rate (kon) with BMP6 [3] came out at 4.2e+07 M⁻¹ s⁻¹; in the test with Activin B, 3.5e+06 M⁻¹ s⁻¹; with GDF3 it was 1.1e+06 M⁻¹ s⁻¹; with GDF8 it was 3.5e+06 M⁻¹ s⁻¹; with GDF11, 3.6e+07 M⁻¹ s⁻¹; with Activin A, 3e+07 M⁻¹ s⁻¹. Moreover, the on-rate (kon) with BMP10 [4] worked out at 8e+07 M⁻¹ s⁻¹. For the same molecule, the binding result with BMP9 was “no binding”.
